Data on five molecules can be found in publication PMC12865225 (Clinical and Translational Science, 2026).

For one data set, the target named is T1, OATP1B1 (Homo sapiens, UniProt Q9Y6L6).
T1 construct: expressed in transfected cells; host or cells: HEK293 (recombinant baculovirus-mediated transduction)
T1 sequence (Q9Y6L6 1-691): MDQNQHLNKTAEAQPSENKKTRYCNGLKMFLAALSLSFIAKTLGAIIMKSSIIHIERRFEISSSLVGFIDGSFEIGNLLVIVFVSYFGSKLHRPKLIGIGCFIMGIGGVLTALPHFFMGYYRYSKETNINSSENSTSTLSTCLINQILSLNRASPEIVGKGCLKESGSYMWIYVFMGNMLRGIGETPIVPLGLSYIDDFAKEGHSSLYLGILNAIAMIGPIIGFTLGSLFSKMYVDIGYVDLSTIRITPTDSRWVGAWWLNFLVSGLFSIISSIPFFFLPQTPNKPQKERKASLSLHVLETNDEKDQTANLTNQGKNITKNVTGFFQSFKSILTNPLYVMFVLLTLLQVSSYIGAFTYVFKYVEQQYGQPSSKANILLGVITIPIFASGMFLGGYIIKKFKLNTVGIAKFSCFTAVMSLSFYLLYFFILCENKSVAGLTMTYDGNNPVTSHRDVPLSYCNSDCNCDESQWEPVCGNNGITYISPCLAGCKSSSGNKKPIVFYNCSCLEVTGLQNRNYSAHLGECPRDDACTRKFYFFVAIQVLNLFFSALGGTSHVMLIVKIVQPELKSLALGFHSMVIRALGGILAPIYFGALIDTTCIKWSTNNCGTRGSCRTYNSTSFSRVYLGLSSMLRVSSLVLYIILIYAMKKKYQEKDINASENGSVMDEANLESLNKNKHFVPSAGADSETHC
Also noted: method as in PMID 23571415. Particulars: 10 μM in vitro; cited from earlier work.

The next data set addresses T2, OATP1B3 (Homo sapiens, UniProt Q9NPD5).
T2 construct: expressed in transfected cells; host or cells: HEK293 (recombinant baculovirus-mediated transduction)
T2 sequence (Q9NPD5 1-702): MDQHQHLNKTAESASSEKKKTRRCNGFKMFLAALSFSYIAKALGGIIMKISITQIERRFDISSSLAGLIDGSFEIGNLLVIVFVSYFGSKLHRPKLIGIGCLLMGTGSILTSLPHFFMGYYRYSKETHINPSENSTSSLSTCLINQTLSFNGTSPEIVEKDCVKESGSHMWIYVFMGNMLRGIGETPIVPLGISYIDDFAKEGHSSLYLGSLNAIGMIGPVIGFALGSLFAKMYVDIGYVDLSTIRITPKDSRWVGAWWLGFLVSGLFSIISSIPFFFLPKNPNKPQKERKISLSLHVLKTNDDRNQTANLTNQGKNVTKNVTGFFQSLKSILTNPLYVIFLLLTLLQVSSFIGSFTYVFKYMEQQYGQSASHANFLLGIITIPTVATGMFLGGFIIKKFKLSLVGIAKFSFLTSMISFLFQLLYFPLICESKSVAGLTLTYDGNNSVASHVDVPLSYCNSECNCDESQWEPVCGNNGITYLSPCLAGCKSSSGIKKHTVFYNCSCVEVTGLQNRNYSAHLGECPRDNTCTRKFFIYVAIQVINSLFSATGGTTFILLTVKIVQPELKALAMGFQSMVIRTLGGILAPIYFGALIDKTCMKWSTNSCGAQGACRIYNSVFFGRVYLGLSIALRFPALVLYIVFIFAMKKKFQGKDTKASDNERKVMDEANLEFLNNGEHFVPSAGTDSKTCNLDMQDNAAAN
Also noted: method as in PMID 23571415. The following applies: 10 μM in vitro; cited from earlier work.

Substrate in data set [1]: Cc1onc(-c2c(Cl)cccc2Cl)c1C(=O)N[C@@H]1C(=O)N2[C@@H]1SC(C)(C)[C@@H]2C(=O)O
Briefly: cells, lysate or membranes. Particulars: other: uptake, 2 min; pH 7.4; 37.0 °C.

Substrate in data set [2]: Cc1onc(-c2c(F)cccc2Cl)c1C(=O)N[C@@H]1C(=O)N2[C@@H]1SC(C)(C)[C@@H]2C(=O)O
Briefly: cells, lysate or membranes. Particulars: other: uptake, 2 min; pH 7.4; 37.0 °C.

Values joined by “and” are separate entries in the source; they are usually repeats but may differ in a detail not shown here. Equal entries are not always repeated.

Take `Cc1onc(-c2ccccc2Cl)c1C(=O)N[C@@H]1C(=O)N2[C@@H]1SC(C)(C)[C@@H]2C(=O)O` [cloxacillin]: the “inhibition of OATP1B1 transport” value at OATP1B1 is on record as “around 50%”. Further, the “inhibition of OATP1B3 transport” value on OATP1B3 is given as “around 50%”.

B1: OATP1B1 (Homo sapiens) (protein)
chain: T1 sequence (Q9Y6L6 1-691)
B1: the Km (usually the concentration of substrate that gives half-maximal velocity) in data set [1] was 3.22 µM and 3 µM; in data set [2] it was 10.4 µM.

B2: OAT3 (Homo sapiens) (protein)
chain: MTFSEILDRVGSMGHFQFLHVAILGLPILNMANHNLLQIFTAATPVHHCRPPHNASTGPWVLPMGPNGKPERCLRFVHPPNASLPNDTQRAMEPCLDGWVYNSTKDSIVTEWDLVCNSNKLKEMAQSIFMAGILIGGLVLGDLSDRFGRRPILTCSYLLLAASGSGAAFSPTFPIYMVFRFLCGFGISGITLSTVILNVEWVPTRMRAIMSTALGYCYTFGQFILPGLAYAIPQWRWLQLTVSIPFFVFFLSSWWTPESIRWLVLSGKSSKALKILRRVAVFNGKKEEGERLSLEELKLNLQKEISLAKAKYTASDLFRIPMLRRMTFCLSLAWFATGFAYYSLAMGVEEFGVNLYILQIIFGGVDVPAKFITILSLSYLGRHTTQAAALLLAGGAILALTFVPLDLQTVRTVLAVFGKGCLSSSFSCLFLYTSELYPTVIRQTGMGVSNLWTRVGSMVSPLVKITGEVQPFIPNIIYGITALLGGSAALFLPETLNQPLPETIEDLENWSLRAKKPKQEPEVEKASQRIPLQPHGPGLGSS
As to B2, the Km turned out to be 22.4 µM in data set [1] and 27.0 µM in data set [2].

B3: OATP2B1 (Homo sapiens) (protein)
chain: MGPRIGPAGEVPQVPDKETKATMGTENTPGGKASPDPQDVRPSVFHNIKLFVLCHSLLQLAQLMISGYLKSSISTVEKRFGLSSQTSGLLASFNEVGNTALIVFVSYFGSRVHRPRMIGYGAILVALAGLLMTLPHFISEPYRYDNTSPEDMPQDFKASLCLPTTSAPASAPSNGNCSSYTETQHLSVVGIMFVAQTLLGVGGVPIQPFGISYIDDFAHNSNSPLYLGILFAVTMMGPGLAFGLGSLMLRLYVDINQMPEGGISLTIKDPRWVGAWWLGFLIAAGAVALAAIPYFFFPKEMPKEKRELQFRRKVLAVTDSPARKGKDSPSKQSPGESTKKQDGLVQIAPNLTVIQFIKVFPRVLLQTLRHPIFLLVVLSQVCLSSMAAGMATFLPKFLERQFSITASYANLLIGCLSFPSVIVGIVVGGVLVKRLHLGPVGCGALCLLGMLLCLFFSLPLFFIGCSSHQIAGITHQTSAHPGLELSPSCMEACSCPLDGFNPVCDPSTRVEYITPCHAGCSSWVVQDALDNSQVFYTNCSCVVEGNPVLAGSCDSTCSHLVVPFLLLVSLGSALACLTHTPSFMLILRGVKKEDKTLAVGIQFMFLRILAWMPSPVIHGSAIDTTCVHWALSCGRRAVCRYYNNDLLRNRFIGLQFFFKTGSVICFALVLAVLRQQDKEARTKESRSSPAVEQQLLVSGPGKKPEDSRV
Take B3: the Km in data set [1] stood at 34.7 µM; in data set [2], 41.6 µM.

B4: OAT4 (Homo sapiens) (protein)
chain: MAFSKLLEQAGGVGLFQTLQVLTFILPCLMIPSQMLLENFSAAIPGHRCWTHMLDNGSAVSTNMTPKALLTISIPPGPNQGPHQCRRFRQPQWQLLDPNATATSWSEADTEPCVDGWVYDRSVFTSTIVAKWDLVCSSQGLKPLSQSIFMSGILVGSFIWGLLSYRFGRKPMLSWCCLQLAVAGTSTIFAPTFVIYCGLRFVAAFGMAGIFLSSLTLMVEWTTTSRRAVTMTVVGCAFSAGQAALGGLAFALRDWRTLQLAASVPFFAISLISWWLPESARWLIIKGKPDQALQELRKVARINGHKEAKNLTIEVLMSSVKEEVASAKEPRSVLDLFCVPVLRWRSCAMLVVNFSLLISYYGLVFDLQSLGRDIFLLQALFGAVDFLGRATTALLLSFLGRRTIQAGSQAMAGLAILANMLVPQDLQTLRVVFAVLGKGCFGISLTCLTIYKAELFPTPVRMTADGILHTVGRLGAMMGPLILMSRQALPLLPPLLYGVISIASSLVVLFFLPETQGLPLPDTIQDLESQKSTAAQGNRQEAVTVESTSL
B4: the Km in data set [1] is given as 32.9 µM; in data set [2], 52.5 µM.
